Where no end group is shown, it is not given here.
What was measured:
Test in all cases: cell-based or functional assay
[1] = target: Human activated protein C (human, UniProt P04070)
Human Factor XIIa = target: T1, Human Factor XIIa (human, UniProt P00748)
T1 sequence 1: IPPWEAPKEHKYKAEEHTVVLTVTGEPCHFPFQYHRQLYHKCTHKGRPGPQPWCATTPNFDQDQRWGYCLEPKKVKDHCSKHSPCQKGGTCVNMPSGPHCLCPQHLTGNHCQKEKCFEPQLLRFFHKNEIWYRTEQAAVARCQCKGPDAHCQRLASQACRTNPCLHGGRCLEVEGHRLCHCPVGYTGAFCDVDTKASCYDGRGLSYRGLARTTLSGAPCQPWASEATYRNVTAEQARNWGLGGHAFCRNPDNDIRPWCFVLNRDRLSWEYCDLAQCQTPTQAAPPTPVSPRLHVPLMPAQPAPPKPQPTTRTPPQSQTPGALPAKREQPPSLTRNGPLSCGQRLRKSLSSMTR
T1 sequence 2: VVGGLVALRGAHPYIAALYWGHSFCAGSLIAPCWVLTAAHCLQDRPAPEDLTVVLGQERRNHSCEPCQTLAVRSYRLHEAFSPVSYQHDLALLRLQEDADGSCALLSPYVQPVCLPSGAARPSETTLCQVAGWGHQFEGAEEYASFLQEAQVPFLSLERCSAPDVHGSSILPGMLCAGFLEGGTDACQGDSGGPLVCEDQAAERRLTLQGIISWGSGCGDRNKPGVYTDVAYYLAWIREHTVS

Human Factor Xa = Human Factor Xa (human, UniProt P00742)
Human thrombin = Human thrombin (human, UniProt P00734)
Human plasmin = Human plasmin (human, UniProt P00747)

fraction of remaining proteolytic activity with 100 nM inhibitor [1]: 0.87 fraction of uninhibited rate | fraction of remaining proteolytic activity with 100 nM inhibitor (Human Factor XIIa): 0.97 fraction of uninhibited rate | fraction of remaining proteolytic activity with 100 nM inhibitor (Human Factor Xa): 0.89 fraction of uninhibited rate | fraction of remaining proteolytic activity with 100 nM inhibitor (Human thrombin): 0.92 fraction of uninhibited rate | fraction of remaining proteolytic activity with 100 nM inhibitor (Human plasmin): 0.62 fraction of uninhibited rate
B1: APPI (Alzheimer's amyloid β-protein precursor inhibitor) (other)
chain: VREVCSEQAETGPCRAMISRWYFDVTEGKCAPFFYGGCGGNRNNFDTEEYCMAVCGSA
modifications: not fully specified (bridges); ends and bridges not checked
